Measured values published in publication PMC3763810.

These substances were tested against growth hormone secretagogue receptor (GHS-R1a) (UniProt Q92847).
Sequence of UniProt Q92847 (Q92847 whole entry): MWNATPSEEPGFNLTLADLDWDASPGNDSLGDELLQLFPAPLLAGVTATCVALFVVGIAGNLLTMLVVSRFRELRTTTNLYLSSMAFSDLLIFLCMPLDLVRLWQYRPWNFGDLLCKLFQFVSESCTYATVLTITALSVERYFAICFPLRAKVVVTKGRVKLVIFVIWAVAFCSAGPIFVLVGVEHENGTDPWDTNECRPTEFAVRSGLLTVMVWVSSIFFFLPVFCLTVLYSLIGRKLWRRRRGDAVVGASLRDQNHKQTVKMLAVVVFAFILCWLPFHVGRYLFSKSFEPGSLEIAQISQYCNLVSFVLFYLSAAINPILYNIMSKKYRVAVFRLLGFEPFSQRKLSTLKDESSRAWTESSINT
For GO-Tat (peptide), the EC50 in the GHS-R1a assay (stably transfected HEK-293T-GHS-R1a cells) was 23 nM. For Ghrelin28-Oct-CoA (peptide), the EC50 in the GHS-R1a assay (stably transfected HEK-293T-GHS-R1a cells) was 270 nM. In the case of Des-acyl ghrelin (peptide), the EC50 in the GHS-R1a assay (stably transfected HEK-293T-GHS-R1a cells) is reported as > 10000 nM. Work on “Amide ghrelin (Ser3 Dap-Octanoyl-Amide) (peptide)” yielded an EC50 in the GHS-R1a assay (stably transfected HEK-293T-GHS-R1a cells) of 19 nM. GO-CoA-Tat (peptide) was tested, and the EC50 in the GHS-R1a assay (stably transfected HEK-293T-GHS-R1a cells) was > 10000 nM. Acyl ghrelin (peptide) showed an EC50 in the GHS-R1a assay (stably transfected HEK-293T-GHS-R1a cells) of 18 nM.

These substances were tested against ghrelin O-acyltransferase (GOAT) with a C-terminal 3xFlag tag (mouse) (UniProt P0C7A3).
Sequence of UniProt P0C7A3 (P0C7A3 whole entry): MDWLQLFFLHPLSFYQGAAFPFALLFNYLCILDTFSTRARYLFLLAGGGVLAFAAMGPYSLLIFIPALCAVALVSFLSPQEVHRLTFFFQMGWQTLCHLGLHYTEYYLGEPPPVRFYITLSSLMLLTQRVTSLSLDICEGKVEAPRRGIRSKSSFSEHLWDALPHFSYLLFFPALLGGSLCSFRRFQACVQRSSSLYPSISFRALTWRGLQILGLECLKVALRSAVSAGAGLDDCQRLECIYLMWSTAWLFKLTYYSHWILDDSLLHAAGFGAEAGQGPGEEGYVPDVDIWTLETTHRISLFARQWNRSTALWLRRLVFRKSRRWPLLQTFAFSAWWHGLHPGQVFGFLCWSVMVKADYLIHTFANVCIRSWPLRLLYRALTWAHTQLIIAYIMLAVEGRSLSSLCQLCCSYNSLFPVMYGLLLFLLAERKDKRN
Substance GO-CoA-Tat (peptide) has an inhibition of ghrelin acylation in cells, compounds used at 6 μM of 75%.
